Data published in patent US20190241648A1 (STATEN BIOTECHNOLOGY B V, published 2019).
Ends that are not written are not given here.

Tests used:
Experiment in all cases: cyclic peptide substitution array
[1] = molecular target: T1, ApoC3 peptide P69M (human, not fully specified; cyclic (thioether))
T1 peptide: DKFSEFWDLDMEV
Summary of the method: (§1)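 Peptide microarrays incubated with antibody samples, then stained with goat anti-human IgG (Fc) DyLight680 and anti-HA DyLight800 control antibodies, scanned at intensity 7/7 (red/green). Secondary-only pre-stain checked background binding; framing HA peptides served as quality control; substitution effects read as changes in spot intensity.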

[2] = molecular target: T2, ApoC3 peptide E63N (human, cyclic (thioether))
T2 peptide: DKFSNFWDLDPEV
Summary of the method: as §1

[3] = molecular target: T3, ApoC3 peptide P69D (human, not fully specified; cyclic (thioether))
T3 peptide: DKFSEFWDLDDEV
Summary of the method: as §1

[4] = molecular target: T4, ApoC3 peptide E70F (human, cyclic (thioether))
T4 peptide: DKFSEFWDLDPFV
Summary of the method: as §1

[5] = molecular target: T5, ApoC3 peptide E70M (human, cyclic (thioether))
T5 peptide: DKFSEFWDLDPMV
Summary of the method: as §1

[6] = molecular target: T6, ApoC3 peptide S62V (human, thioether (positions not given here); also: cyclic (thioether), ring places not given here)
T6 peptide: DKFVEFWDLDPEV
Summary of the method: as §1

[7] = molecular target: T7, ApoC3 peptide E70G (human, cyclic (thioether))
T7 peptide: DKFSEFWDLDPGV
Summary of the method: as §1

[8] = molecular target: T8, ApoC3 peptide W65P (human, cyclic (thioether))
T8 peptide: DKFSEFPDLDPEV
Summary of the method: as §1

[9] = molecular target: T9, ApoC3 peptide S62T (human, thioether (positions not given here); also: cyclic (thioether), ring places not given here)
T9 peptide: DKFTEFWDLDPEV
Summary of the method: as §1

[10] = molecular target: T10, ApoC3 peptide E63A (human, not fully specified; cyclic (thioether))
T10 peptide: DKFSAFWDLDPEV
Summary of the method: as §1

[11] = molecular target: T11, ApoC3 peptide E63L (human, cyclic (thioether))
T11 peptide: DKFSLFWDLDPEV
Summary of the method: as §1

[12] = molecular target: T12, ApoC3 peptide D68E (human, cyclic (thioether))
T12 peptide: DKFSEFWDLEPEV
Summary of the method: as §1

[13] = molecular target: T13, ApoC3 peptide E70Q (human, cyclic (thioether))
T13 peptide: DKFSEFWDLDPQV
Summary of the method: as §1

[14] = molecular target: T14, ApoC3 peptide D59Y (human, not fully specified; cyclic (thioether))
T14 peptide: YKFSEFWDLDPEV
Summary of the method: as §1

[15] = molecular target: T15, ApoC3 peptide K60G (human, cyclic (thioether))
T15 peptide: DGFSEFWDLDPEV
Summary of the method: as §1

[16] = molecular target: T16, ApoC3 peptide W65L (human, cyclic (thioether))
T16 peptide: DKFSEFLDLDPEV
Summary of the method: as §1

[17] = molecular target: T17, ApoC3 peptide D59M (human, thioether (positions not given here); not fully specified (C-terminus, bridges))
T17 peptide: MKFSEFWDLDPEV
Summary of the method: as §1

[18] = molecular target: T18, ApoC3 peptide S62L (human, thioether (positions not given here); also: cyclic (thioether), ring places not given here)
T18 peptide: DKFLEFWDLDPEV
Summary of the method: as §1

[19] = molecular target: T19, ApoC3 peptide F61C (human, cyclic (thioether))
T19 peptide: DKCSEFWDLDPEV
Summary of the method: as §1

[20] = molecular target: T20, ApoC3 peptide L67I (human, thioether (positions not given here); not fully specified (bridges); also: thioether between a C-terminal Cys side chain and a modified N-terminus, the Cys is not in the chain)
T20 peptide: DKFSEFWDIDPEV
Summary of the method: as §1

[21] = molecular target: T21, ApoC3 peptide K60M (human, cyclic (thioether))
T21 peptide: DMFSEFWDLDPEV
Summary of the method: as §1

[22] = molecular target: T22, ApoC3 peptide P69K (human, not fully specified; cyclic (thioether))
T22 peptide: DKFSEFWDLDKEV
Summary of the method: as §1

[23] = molecular target: T23, ApoC3 peptide V71Q (human, not fully specified; cyclic (thioether))
T23 peptide: DKFSEFWDLDPEQ
Summary of the method: as §1

[24] = molecular target: T24, ApoC3 peptide L67E (human, thioether (positions not given here); not fully specified (bridges); also: thioether between a C-terminal Cys side chain and a modified N-terminus, the Cys is not in the chain)
T24 peptide: DKFSEFWDEDPEV
Summary of the method: as §1

[25] = molecular target: T25, ApoC3 peptide K60F (human, cyclic (thioether))
T25 peptide: DFFSEFWDLDPEV
Summary of the method: as §1

[26] = molecular target: T26, ApoC3 peptide F64W (human, thioether (positions not given here); not fully specified (bridges); also: cyclic (thioether), positions not given here)
T26 peptide: DKFSEWWDLDPEV
Summary of the method: as §1

[27] = molecular target: T27, ApoC3 peptide S62R (human, thioether (positions not given here); also: cyclic (thioether), ring places not given here)
T27 peptide: DKFREFWDLDPEV
Summary of the method: as §1

[28] = molecular target: T28, ApoC3 peptide L67Y (human, thioether (positions not given here); not fully specified (bridges); also: thioether between a C-terminal Cys side chain and a modified N-terminus, the Cys is not in the chain)
T28 peptide: DKFSEFWDYDPEV
Summary of the method: as §1

[29] = molecular target: T29, ApoC3 peptide D66M (human, not fully specified; cyclic (thioether))
T29 peptide: DKFSEFWMLDPEV
Summary of the method: as §1

[30] = molecular target: T30, ApoC3 peptide D59Q (human, thioether (positions not given here); not fully specified (C-terminus, bridges); also: cyclised via thioether between a C-terminal Cys and a modified N-terminus, the Cys and the N-terminal …)
T30 peptide: QKFSEFWDLDPEV
Summary of the method: as §1

B1: Llama antibody 5E5 (antibody, V domains shown)
VH: QLQLVESGGGLVQPGGSLRLSCAASGFTFGTYSMRWVRQVPRKALEWVSSISTDGGGTAYRDSVKGRFTISRDNAKNTLYLQMNNLKPEDTAIYYCVIAGYSDWGQGTQVTVSS
VL: ATMLTQSPGSLSVVPGESASISCKTSQGLVHSDGKTYFYWFLQKPGQSPQQLIYQVSNRASGVPDRFTGSGSGTDFTLKISGVKAEDAGVYYCAQGTYYPHTFGSGTRLEIK
notes: detected with goat anti-human IgG (Fc); also called mAb 5E5
% of binding to wild-type peptide [1]: 29.3%
% of binding to wild-type peptide [2]: 31.3%
% of binding to wild-type peptide [3]: 21.6%
% of binding to wild-type peptide [4]: 40.1%
% of binding to wild-type peptide [5]: 74%
% of binding to wild-type peptide [6]: 30.5%
% of binding to wild-type peptide [7]: 46.1%
% of binding to wild-type peptide [8]: 0%
% of binding to wild-type peptide [9]: 215%
% of binding to wild-type peptide [10]: 90.1%
% of binding to wild-type peptide [11]: 10.1%
% of binding to wild-type peptide [12]: 40.1%
% of binding to wild-type peptide [13]: 68%
% of binding to wild-type peptide [14]: 50.3%
% of binding to wild-type peptide [15]: 143%
% of binding to wild-type peptide [16]: 0%
% of binding to wild-type peptide [17]: 57.7%
% of binding to wild-type peptide [18]: 3.83%
% of binding to wild-type peptide [19]: 0.51%
% of binding to wild-type peptide [20]: 46.9%
% of binding to wild-type peptide [21]: 186%
% of binding to wild-type peptide [22]: 20.7%
% of binding to wild-type peptide [23]: 86.8%
% of binding to wild-type peptide [24]: 0.45%
% of binding to wild-type peptide [25]: 53.2%
% of binding to wild-type peptide [26]: 88.5%
% of binding to wild-type peptide [27]: 1.45%
% of binding to wild-type peptide [28]: 0.02%
% of binding to wild-type peptide [29]: 0%
% of binding to wild-type peptide [30]: 68.3%
